Reference: US9096871B2, “Variant CBH I polypeptides with reduced product inhibition” (BP Corporation North America Inc., priority 2010, dated 2015)
Residue numbers refer to the chain shown, from its start. Numbers in names are those of the source.

B1: R268A/R411A: T. reesei CBH I (SEQ ID NO:2) with R268A and R411A substitutions (protein, listed as Trichoderma reesei)
chain: MYRKLAVISAFLATARAQSACTLQSETHPPLTWQKCSSGGTCTQQTGSVVIDANWRWTHATNSSTNCYDGNTWSSTLCPDNETCAKNCCLDGAAYASTYGVTTSGNSLSIGFVTQSAQKNVGARLYLMASDTTYQEFTLLGNEFSFDVDVSQLPCGLNGALYFVSMDADGGVSKYPTNTAGAKYGTGYCDSQCPRDLKFINGQANVEGWEPSSNNANTGIGGHGSCCSEMDIWEANSISEALTPHPCTTVGQEICEGDGCGGTYSDNAYGGTCDPDGCDWNPYRLGNTSFYGPGSSFTLDTTKKLTVVTQFETSGAINRYYVQNGVTFQQPNAELGSYSGNELNDDYCTAEEAEFGGSSFSDKGGLTQFKKATSGGMVLVMSLWDDYYANMLWLDSTYPTNETSSTPGAVAGSCSTSSGVPAQVESQSPNAKVTFSNIKFGPIGSTGNPSGGNPPGGNPPGTTTTRRPATTTGSSPGPTQSHYGQCGGIGYSGPTVCASGTTCQVLNPYYSQCL
B2: R268A/R411K: T. reesei CBH I (SEQ ID NO:2) with R268A and R411K substitutions (protein, listed as Trichoderma reesei)
chain: B1 chain with A411K
B3: R268K/R411A: T. reesei CBH I (SEQ ID NO:2) with R268K and R411A substitutions (protein, listed as Trichoderma reesei)
chain: B1 chain with A268K
B4: R268K: T. reesei CBH I (SEQ ID NO:2) with R268K substitution (protein, listed as Trichoderma reesei)
chain: B1 chain with A268K, A411R
B5: R268A: T. reesei CBH I (SEQ ID NO:2) with R268A substitution (protein, listed as Trichoderma reesei)
chain: B1 chain with A411R
B6: R411K: T. reesei CBH I (SEQ ID NO:2) with R411K substitution (protein, listed as Trichoderma reesei)
chain: B1 chain with A268R, A411K
B7: R411A: T. reesei CBH I (SEQ ID NO:2) with R411A substitution (protein, listed as Trichoderma reesei)
chain: B1 chain with A268R
B8: R268K/R411K: T. reesei CBH I (SEQ ID NO:2) with R268K and R411K substitutions (protein, listed as Trichoderma reesei)
chain: B1 chain with A268K, A411K

test: Bagasse assay in the absence and presence of β-glucosidase (BG); format: biochemical; conditions: variants of T. reesei CBH I; [(Activity without BG)/(Activity with BG)]*100; conversion of glucan after 72 hours
Protocol: Bagasse Assay: This assay measures the activity of CBH I on bagasse, a lignocellulosic substrate. Reactions were run in 10 ml vials with 5% dilute acid pretreated bagasse (250 mg solids per 5 ml reaction). Each reaction contained 4 mg CBH I enzyme/g solids, 200 mM MES pH 6, kanamycin, and chloramphenicol. Reactions were incubated at 35° C. in hybridization incubators (Robbins Scientific), rotating at 20 RPM. Time points were taken by transferring a sample of homogenous slurry (150 μl) into a 96-well deep well plate and quenching the reaction with stop buffer (450 μl of 500 mM sodium carbonate, pH 10). Time point measurements were taken every 24 hours for 72 hours.
Cellobiose Tolerance Assays (or Cellobiose Inhibition Assays): Tolerance to cellobiose (or inhibition caused by cellobiose) was tested in two ways in the CBH I assays. A direct-dose tolerance method can be applied to all of the CBH I assays (i.e., 4-MUL, PASC, and/or bagasse assays), and entails the exogenous addition of a known amount of cellobiose into assay mixtures. A different indirect method entails the addition of an excess amount of β-glucosidase (BG) to PASC and bagasse assays (typically, 1 mg β-glucosidase/g solids loaded). BG will enzymatically hydrolyze the cellobiose generated during these assays; therefore, CBH I activity in the presence of BG can be taken as a measure of activity in the absence of cellobiose. Furthermore, when activity in the presence and absence of BG are similar, this indicates tolerance to cellobiose. […]
FIGS. 4 and 5 show bar graph data for the bagasse assay of wild type T. reesei CBH I vs. the variants. In FIG. 4, bars represent relative activity, normalized to wild type activity in the absence of cellobiose (WT+BG=1). In FIG. 5, bars represent tolerance to cellobiose, as represented by the ratio of activity in the presence of accumulating cellobiose (−BG) to that of activity in the absence of cellobiose (+BG); ratios close to 1 indicate greater tolerance to cellobiose.

Going from B1 to B2, the “Tolerance to cellobiose accumulation % Activity in Bagasse Assay (−/+BG)” value falls from 95% to 94%.

Going from B3 to B4, the “Tolerance to cellobiose accumulation % Activity in Bagasse Assay (−/+BG)” value falls from 102% to 92%.

Going from B5 to B6, the “Tolerance to cellobiose accumulation % Activity in Bagasse Assay (−/+BG)” value rises from 86% to 89%.

B7 and B8 are the same in “Tolerance to cellobiose accumulation % Activity in Bagasse Assay (−/+BG)” value: 94% for the first, 94% for the second.
